The source of these data is patent publication US20120207760A1 (THERACLONE SCIENCES, published 2012).

The target in test [1] is T1, hemagglutinin (HA) of influenza A/Solomon Islands/3/06 H1N1 (Influenza A virus A/Solomon …). Briefly: cell-based or functional assay.
The target of test [2] is T2, hemagglutinin (HA) of influenza A/Japan/305/57 H2N2 (Influenza A virus A/Japan/305/1957 …, UniProt P03451 16-562). Briefly: ELISA, inactivated whole virions coated; transfection supernatant set 3. In general terms: In an ELISA, binding on a coated surface is turned into a signal by an enzyme label.
The target of test [3] is T1, hemagglutinin (HA) of influenza …. Described as above.
Test [4] has as its target T2, hemagglutinin (HA) of influenza …. Briefly: ELISA, inactivated whole virions coated; transfection supernatant set 4.
Test [5] has as its target T1, hemagglutinin (HA) of influenza …. Described as above.
For test [6], the target named is T2, hemagglutinin (HA) of influenza …. Briefly: ELISA, inactivated whole virions coated; transfection supernatant set 2.
Test [7] deals with T1, hemagglutinin (HA) of influenza …. Described as above.
For test [8], the target named is hemagglutinin (HA) on live influenza A virus A/California/4/09 H1N1 (Influenza A virus A/California/04/2009 …). Briefly: cell-based or functional assay.
Test [9] addresses hemagglutinin (HA) on live influenza A virus A/Wisconsin/67/05 H3N2 (Influenza A virus A/Wisconsin/67/2005 …). Briefly: cell-based or functional assay.
Test [10] has as its target hemagglutinin (HA) on live influenza A virus A/Solomon Islands/3/06 H1N1 (Influenza A virus A/Solomon …). Briefly: cell-based or functional assay.

Numbering of substitutions follows the chain as printed.

B1: TCN-532 (5262_H18) (antibody, V domains shown)
VH: QVQLQESGPGLVKPSETLSLTCTVSGGSVSSETYYWSWIRQPPGKGLEWIGYIYYIGNTDYRPSLKSRVTISLDTSKNQFSLKLSSVTAADTAVYYCARGAYYDSSGYPAFYIWGQGTMVTVSS
VL: QSVLTQPPSVSGAPGQRVTISCTGSSSNIGSDYDVHWYKQLPGTAPKLLIFGNSNRPSGVPDRFSGSKSGTSASLAITGLQAEDEADYYCQSYDSSLSGFHVFGSGTKVTVL
For B1, the “% Neutralization” value in test [1] turned out to be 11%. Besides, the results for the OD450 in test [2] and in test [3] were 0.08 OD450 and 0.13 OD450, respectively.

B2: TCN-535 (5246_P19) (antibody, V domains shown)
VH: QVQLVQSGSEVKKPGTSVKVSCTASGSVFTNYGISWVRQAPGQGLEWMGGIIPLFGAAKYAQKFQGRVTITADESTKTVYMELSRLTSKDTAIYFCAKAPRVYEYYFDQWGQGTPVTVSS
VL: EIVLTQSPGTLSLSPGERATLSCRASQSVSSSQLAWYQQKPGQAPRLIIYGASTRATGIPDRFSGSGSGTDFTLTIGRLEPEDFAVFFCQQYSTSPPTFGQGTKVDFK
B2: the OD450 in test [4] is 2.45 OD450; in test [5], 3.52 OD450. Moreover, the “% Neutralization” value in test [1] was found to be 82%.

B3: TCN-528 (5087_P17) (antibody, V domains shown)
VH: QVQLVQSGSEVKKPGASVKVSCKASGYTFTNYDINWIRQAPGQGLEWMGWINPNSGTTGSAQRFQGRVTITVDTSITTVYMELSSLRSDDTAIYYCARGRELLRLQHFLTDSQSERRDCFDPWGQGTLVTVSS
VL: DIQMTQSPSSLSASVGDRVTITCRANQDIGIYLNWYQQNPGKVPKLLLHGASSLQGGVPSRFSASGSGTDFTLTIHSLQPEDLATYYCQQSRRLPYTFGQGTRVELK
Regarding B3, the OD450 in test [6] was 3.64 OD450; in [7] it was 3.66 OD450. In addition, the “% Neutralization” value in test [1] amounted to 0%.

B4: TCN-536 (5095_N01) (antibody, V domains shown)
VH: QVQLQQWGAGLLKPSETLSLTCAVYGGSFSVSGYYWSWIRQPPGRGLEWIGEISHGGSTNYNPSLKSRVTISVDTTKNQFSLRLSSVTAADTAVYYCARGTDPDTEVYCRVGNCAAFDYWGQGSLVTVSS
VL: EIILAQSPGTLSLSPGERATLSCRASQFVSTRSLAWYQQRPGQAPRLLIYGASSRATGIPDRFSGSGSGTDFTLTISRLEPEDFAVYYCQHYGYSPRYAFGQGSKVEIK
Regarding B4, the values for the OD450 in test [4] and in test [5] were 0.06 OD450 and 3.52 OD450, respectively. For the same molecule, the “% Neutralization” value in test [1] was determined as 75%.

B5: TCN-533 (5256_A17) (antibody, V domains shown)
VH: QVQLVQSGADVKKPGSSVTVSCKASGGSFSNYGINWVRQAPGQGLEWMGGIIPLINAPNYAPKFQGRVTITADMFSNIVSLQLTSLRTDDTAVYYCARRKMTTAIDYWGQGTLVTVSS
VL: QPVLSQPPSASASLGASVTLTCTLSSGFDNYQVAWYQQRPGKGPRFVMRVGNGGNVASKGDGIPDRFSVSGSGLNRYLTIKNIQEDDESDYYCGADHGSGNNFVSPYVFGGGTKLTVL
Consider B5, for which, in [1], the “% Neutralization” value worked out at 56%. Further, the OD450 in test [2] came out at 3.65 OD450; in [3], 3.61 OD450.

B6: TCN-527 (5086_C06) (antibody, V domains shown)
VH: QVQLQESGPGLVKPSETLSLNCAVSGGSISNYYWSWIRQPPGKGLEWIGYISYNGRPKYNPSLTSRVTISVDTSKDQFSLELRSVTAADTALYYCARETRFGELLSPYDAFEIWGQGTMVTVSS
VL: DIQMTQSPSSLSASVGDRVTMTCRASQNIRSYLNWYQQRPGTAPKLLIYAASTLHSGVPSRFSGGGSGTDFTLTINNLQPEDFASYYCQQSYDNPQTFGQGTKVEIK
Take B6: the results for the OD450 in test [6] and in test [7] were 3.63 OD450 and 3.69 OD450, respectively. Moreover, in test [1], the “% Neutralization” value turned out to be 12%.

B7: TCN-529 (5297_H01) (antibody, V domains shown)
VH: QITLRESGPTLVKPTQTLTLTCTFSGFSLSTNGVNVGWIRQPPGKALEWLALIYWDDDKRYSPSLKRRLTITKDTSKNQVVLTLTNMDPVDTATYYCAHRPDFYGDFEYWGPGTLVTVSS
VL: QSALTQPASVSGSPGQSITISCTGSSSDIGGYNYVSWYQQHPGKAPKLMIYDVNNRPSGVSNRFSGSKSGNTASLTISGLQTDDEADYYCGSYTGSPHYVFGTGTKVTVL
With B7, in [1], the “% Neutralization” value was found to be 0%. For the same molecule, the OD450 in [2] came out at 0.1 OD450; in test [3], 0.16 OD450.

B8: TCN-526 (5084_C17) (antibody, V domains shown)
VH: EVLMVESGGGLVQPGGSVRLSCVASGFSFSSHWMTWVRQAPGKGLEWVANIEDDGGDKYYVDSVKGRFIISRDNAKNSVYLQMNSLRAEDTAVYFCARGSGSSDRSDYDPHYYYYLDVWGKGATVTVSS
VL: DIQLTQSPSSLSASVGDRVTITCRASQSISRYLNWYQQKPGKAPKLLLFAASTLLDGVPSRFSGSGSGTDFTLTISSLQPEDFATYYCQRNHSPSWTFGQGTRVEIK
Regarding B8, the OD450 in test [6] stood at 0.07 OD450; in [7] it was 0.08 OD450. In addition, the “% Neutralization” value in test [1] stood at 0%.

B9: TCN-542 (5079_A16) (antibody, V domains shown)
VH: QVQLQESGPGLVKPSQTLSLTCTVSGGSISSGNYYWNWVRQHPGKGLEWIGYIYYRGSTFYNPSLKSRVTISIDTSKNQFSLRLSSVTAADTAVYYCAKDTRSSLDNYQYGMDVWGQGTTVTVSS
VL: QTVVTQEPSLTVSPGGTVTLTCASSTGAVTSSYFPNWFQQKPGQAPRPLIYSTTIRHSWTPARFSGSLLGGKAALTLSGVQPEDEADYYCLLYSGGDPVAFGGGTKLTVL
For B9, the “% Neutralization” value in test [8] was 15%; in test [9] it was 8%; in [10], 99%.

B10: TCN-530 (5248_H10a) (antibody, V domains shown)
VH: QVQLVQSGAEVRKPGSSVKVSCKASGGPFMSYAIGWVRQAPGQGLEWMGGINPVFGRPHYAQKFQGRVTIATDDSTKTSYMELSSLTSEDTGMYYCASRYSRSSPGTFESWGQGTLVTVSS
VL: EIVMTQFPATLSVSPGERVTLSCRASQSVSNNLAWYQQKPGQPPRLLIYDASTRATGVPAKFSGTGSGTEFTLSISSLQSEDFAVYYCQQYHNWPPSYSFGLGTKLEIK
For B10, the “% Neutralization” value in [1] is 64%. The OD450 in test [2] came to 3.43 OD450; in [3] it was 3.62 OD450.

B11: TCN-558 (5248_H10b) (antibody, V domains shown)
VH: B2 VH
VL: B10 VL
For B11, the “% Neutralization” value in test [9] came out at 7%; in test [10] it was 84%.

B12: TCN-531 (5091_H13) (antibody, V domains shown)
VH: EVQLVESGGDLVQPGRSLKLSCTGSGFTFGDYGVTWVRQAPGKGLEWVGFIRTRPWGGTADTAASVKGRFTISRDDSKSLAYLQMNSLKTEDTAVYYCCRDAPPNVEVASMTNWYFDLWGRGTLVTVSS
VL: DIQLTQSPSSLSASVGDRVTITCRASQGILNCLAWYQQKPGKVPNLLMYAASTLQSGVPSRFSGSGFGTDFTLTISSLQPEDVATYYCQTYGGVSTFGGGTKVEIR
With B12, the “% Neutralization” value in test [1] is 65%. For the same molecule, the OD450 is 0.09 OD450 in test [2] and 0.1 OD450 in test [3].

B13: TCN-522 (3212_I12) (antibody, V domains shown)
VH: QVQLQQWGAGLLKPSETLSLTCTVSGGSLTDYSWNWIRQPPGKGLEWIGDTLHNGYTNYNPSLRGRVSISIDTSKNQVSLRLTSVTAADTALYYCARGSGGYGGFDYFGKLRTWDFWGQGTLVTVSS
VL: DIQLTQSPSSLSASVGDRVTITCRASQGIRNDLGWYQQKPGNAPKRLIFGASSLQSGVPSRFSGSGSGTEFTLTISSLQPEDFATYYCLQHNSYPYTFGQGTKLEIK
B13: the OD450 in test [6] was found to be 0.61 OD450; in [7], 3.48 OD450. In addition, the “% Neutralization” value in test [1] was found to be 33%.

B14: TCN-555 (5246_L16) (antibody, V domains shown)
VH: QVQLVQSGAEVKRPGSSVKVSCTASGGIFRKNAISWVRQAPGQGLEWMGGIIAVFNTANYAQKFQNRVKITADESGNTAYMELSSLTSDDTAVYYCASHPKYFYGSGSYPDFWGQGTLVTVSS
VL: QSALTQPRSVSGSPGQSITISCTGGSSDIGASNSVSWYQQHPGKAPKLVIFDVTERPSGVPHRFSGSKSGNTASLTVSGLQPDDEADYFCCAYGGKYLVVFGGGTKVTVL
On to B14, for which the “% Neutralization” value turned out to be 5% in test [9] and 49% in test [10].

B15: TCN-563 (5237_B21) (antibody, V domains shown)
VH: B14 VH with V5A, N66G, T87R
VL: B14 VL with I18V, G25S, I29V, F51Y, D83E
For the molecule B15, the results for the OD450 in [6] and in [7] were 0.84 OD450 and 3.6 OD450, respectively. Besides, in test [1], the “% Neutralization” value was 78%.

B16: TCN-534 (5249_B02) (antibody, V domains shown)
VH: QVQLVQSGAEVKKPGSSVKVSCRESGGTFNGYTITWVRQAPGQGLEWMGGIIPMMGTVNYAQKLQGRVTITTDYFTKTAYMDLNNLRSEDTAMYYCVKIRYTGQQLLWGQGTLVTVSS
VL: DIQMTQSPSTLSASIGDRVTITCRASQSIASWLAWYQQKPGKAPKLLIYEAVNLESGVPSRFSGSGSGTDFTLTISSLQPDDFATYFCQHYGTISQTFGGGTKVEIK
As for B16, the OD450 was 2.45 OD450 in test [4] and 3.5 OD450 in test [5]. Moreover, the “% Neutralization” value in test [1] was 86%.
